B1: Adapter molecule crk (Homo sapiens), P46108-1 (parent)
chain: MAGNFDSEERSSWYWGRLSRQEAVALLQGQRHGVFLVRDSSTSPGDYVLSVSENSRVSHYIINSSGPRPPVPPSPAQPPPGVSPSRLRIGDQEFDSLPALLEFYKIHYLDTTTLIEPVSRSRQGSGVILRQEEAEYVRALFDFNGNDEEDLPFKKGDILRIRDKPEEQWWNAEDSEGKRGMIPVPYVEKYRPASASVSALIGGNQEGSHPQPLGGPEPGPYAQPSVNTPLPNLQNGPIYARVIQKRVPNAYDKTALALEVGELVKVTKINVSGQWEGECNGKRGHFPFTHVRLLDQQNPDEDFS

Variants of: B1
Conditions: with ppia_human PPIA

Row | Variant | effect of a mutation on the interaction
1 | P220A | disrupting interaction strength

Variants of: B1
Conditions: with ppia_human PPIA
Remark: another data set of the same source

Row | Variant | effect of a mutation on the interaction
2 | P218F | increasing interaction strength
